Results as given in the supplement of paper PMC10567573.
± gives the standard deviation.

Experiment: protein stability index of a GFP-peptide fusion (GPS, HEK-293T) (PSI 1-6); higher = more stable
[1] = treatment: DMSO, c terminus: a fixed tail appended
[2] = treatment: MLN4924 1 uM, 8 h, c terminus: a fixed tail appended
[3] = treatment: DMSO, c terminus: native
[4] = treatment: MLN4924 1 uM, 8 h, c terminus: native
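Also: 24-mer peptide tiles fused after GFP, lentivirally expressed, FACS-sorted into six equal bins by GFP/DsRed ratio, decoded by Illumina sequencing, PSI is the read-weighted mean bin number.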

| Sequence | protein stability index [1] | protein stability index [2] | protein stability index [3] | protein stability index [4] |
| --- | --- | --- | --- | --- |
| QRIALRLGNGNDKKEMNKSDLNTN [KMT2E] | 4.78 ± 0.12 | 4.47 ± 0.28 |  |  |
| RASPTRTAPLPMPEGPEPAAPGKQ [ELOA2] | 5.4 ± 0.14 | 5.66 ± 0.1 |  |  |
| PSGTPELEVPKPGQPSEPEHGPSP [CHIT1] | 5.52 ± 0.25 | 5.47 ± 0.18 |  |  |
| HVLPAVLAEVAPVVTTEHILVSVA [PYCR3] | 2.65 ± 0.63 | 2.8 ± 0.72 |  |  |
| TVNVQRTGQPLPQSIQQAMRYLRN [DLC1] | 3.17 ± 0.18 | 3.33 ± 0.23 |  |  |
| HRDMKPDNILLDEHDTWLSYKSH [STK32A] |  |  | 3.68 ± 0.27 | 3.94 ± 0.27 |
| VARPVRFPREHQFFEDGDVQRHLY [ZNF511] | 3.31 ± 0.17 | 3.55 ± 0.38 |  |  |
| EQQRCLLLARLRELEQQIWKERDE [TRIM15] | 3.03 ± 0.28 | 3.29 ± 0.36 |  |  |
| QFTSSSSMKGSCGIGGGIGGGSSR [KRT16] | 3.29 ± 0.26 | 3.48 ± 0.32 |  |  |
| TLCQFPETLLGDPKRRMRYFDPLR [KCNA3] | 2.26 ± 0.14 | 2.5 ± 0.34 |  |  |
| TTTHAPPGVHRRYSALREESAKDW [PPFIA4] | 4.23 ± 0.3 | 4.47 ± 0.15 |  |  |
| PKQLYFSARQGELQKVLLMLVDGI [EHMT1] | 2.66 ± 0.48 | 2.35 ± 0.58 |  |  |
| VEGFRVTLVDEGDLYNWEVAIFGP [CDC34] | 3.11 ± 0.82 | 2.85 ± 0.95 |  |  |
| KIIICSQNEEYLLTYINEDRISTT [PLK2] | 2.02 ± 0.35 | 2.06 ± 0.36 |  |  |
| EPSSDPSLLGEPCAGPGFTHNIAH [SPAG8] | 4.65 ± 0.074 | 4.52 ± 0.22 |  |  |
| TSTPPPASVINNMLAEIFCQTGGV [ZBED1] | 2.84 ± 0.076 | 2.73 ± 0.23 |  |  |
| VTLQCLAARALDKNKIPYKGFIPE [FEM1A] | 2.69 ± 0.27 | 2.67 ± 0.28 |  |  |
| RVSNPGRLAELLLLETDAGPAASE [GADD45A] | 4.46 ± 0.28 | 4.28 ± 0.26 |  |  |
| LAVRGSRRERELERRELAVEQGER [ZBED3] | 5.05 ± 0.2 | 5.07 ± 0.18 |  |  |
| VRRSSRKSKAELQSEERKRIDELI [KMT5A] | 4.62 ± 0.48 | 4.51 ± 0.39 |  |  |
| PDGVWAYNRGEHPIFVNSPTLDAP [SMAD6] | 3.56 ± 0.34 | 3.62 ± 0.16 |  |  |
| GKTFKQSSNLGQHQRIHTGEKPFE [ZNF232] | 4.46 ± 0.41 | 4.48 ± 0.17 |  |  |

| Sequence | protein stability index [1] | protein stability index [2] | protein stability index [3] | protein stability index [4] |
| --- | --- | --- | --- | --- |
| RMDTPPPEERLEKQNEKLNNQEEE [CCDC89] | 5.55 ± 0.29 | 5.48 ± 0.28 |  |  |
| HNRKKHLNGLQHLKAKKVWYDMFR [ZMAT5] | 2.22 ± 0.44 | 2.38 ± 0.27 |  |  |
| VVKEEISDDNAKLPCFNGRVVSWL [DVL3] | 2.94 ± 0.29 | 3.19 ± 0.19 |  |  |
| IQGYRVYYTMDPTQHVNNWMKHNV [PTPRD] | 2.55 ± 0.25 | 2.44 ± 0.47 |  |  |
| LDKNKIPYKGFIPEDLEAFIELH [FEM1A] |  |  | 3.1 ± 0.29 | 3.06 ± 0.27 |
| LERKFRCQQEQLFQTRQEMTSMSA [LRRC45] | 3.22 ± 0.29 | 3.21 ± 0.24 |  |  |
| FYKDWWNSTSYSNYYRTWNVVVHD [SOAT1] | 2.46 ± 0.39 | 2.15 ± 0.31 |  |  |
| LSKASEPKYQLFVPQLVTGRCATR [RNF180] | 2.88 ± 0.4 | 2.94 ± 0.2 |  |  |
| ELLCCTNVSTKEGIHLALVELLKN [INTS4] | 2.19 ± 0.74 | 2.4 ± 0.41 |  |  |
| GHRPPPARSGHRCVADNTNLYVFG [KLHDC10] | 2.3 ± 0.33 | 2.44 ± 0.24 |  |  |
| IPNAASEEGDEDDWASNKVMFKIG [WEE1] | 4.62 ± 0.13 | 4.28 ± 0.3 |  |  |
| VPTVSRPYSFIEFDTFIQKTKKLY [SEC22B] | 2.3 ± 0.34 | 2.47 ± 0.17 |  |  |
| PMVARYIRINPQSWFDNGSICMRM [CPXM2] | 2.82 ± 1.1 | 1.95 ± 0.38 |  |  |
| LKASMRELGLLIFFLFIGVILFSS [KCNA1] | 2.33 ± 0.45 | 2.31 ± 0.48 |  |  |
| APVILVGCQLDLRYADLEAVNRAR [RHOBTB2] | 2.57 ± 0.17 | 2.45 ± 0.21 |  |  |
| PGRGHTHAAQGGPLLCPGCQGQPQ [ELOA2] | 4.38 ± 0.26 | 4.47 ± 0.14 |  |  |
| PPGAEEPQAPPASRDEAALPELLL [RETREG3] | 5.25 ± 0.31 | 5.39 ± 0.17 |  |  |
| SVPLAYFLLSQQTDLPECEQSSAR [TCF25] | 3.07 ± 0.25 | 2.89 ± 0.5 |  |  |
| TQGQEKMMMMGPKEEEQSCEYETR [ZNF232] | 5.42 ± 0.38 | 5.59 ± 0.16 |  |  |
| THLEAQNRIKGCHDHLTLSVSRPE [PDLIM4] | 3.57 ± 0.18 | 3.66 ± 0.23 |  |  |
| PPTVSQTPVIAATPVPTITANVTS [BRD3] | 4.83 ± 0.12 | 4.76 ± 0.18 |  |  |
| VAAVLEAVAQTAHLPADSEVTLEA [RSAD1] | 3.8 ± 0.17 | 3.94 ± 0.37 |  |  |
